Measurements: publication PMC6914340
pKd: −log10 of the molar value.

Experiments:
Test in all cases: flow cytometry on cells; on-yeast binding titration: single yeast colonies each displaying an IL-6 variant; biotinylated gp130 from 1 μM, eight concentrations in a 1/3 dilution series; apparent KD
[1] = biological target: IL-6 variant Mut1 displayed on yeast (human) (UniProt P05231)
[2] = biological target: IL-6 variant Mut3 displayed on yeast (human) (UniProt P05231)
[3] = biological target: IL-6 variant Mut7 displayed on yeast (human) (UniProt P05231)
Chain of IL-6 variant Mut7 displayed on yeast (human) (P05231 30-212, change not shown): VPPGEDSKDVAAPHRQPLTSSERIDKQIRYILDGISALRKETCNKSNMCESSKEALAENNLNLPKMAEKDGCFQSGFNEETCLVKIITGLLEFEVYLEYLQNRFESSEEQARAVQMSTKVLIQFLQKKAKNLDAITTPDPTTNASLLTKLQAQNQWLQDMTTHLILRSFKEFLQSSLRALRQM

Measured: pKd

Chain of biotinylated gp130 ectodomain (SD1-SD3, amino acids 23–321) (P40189 23-321): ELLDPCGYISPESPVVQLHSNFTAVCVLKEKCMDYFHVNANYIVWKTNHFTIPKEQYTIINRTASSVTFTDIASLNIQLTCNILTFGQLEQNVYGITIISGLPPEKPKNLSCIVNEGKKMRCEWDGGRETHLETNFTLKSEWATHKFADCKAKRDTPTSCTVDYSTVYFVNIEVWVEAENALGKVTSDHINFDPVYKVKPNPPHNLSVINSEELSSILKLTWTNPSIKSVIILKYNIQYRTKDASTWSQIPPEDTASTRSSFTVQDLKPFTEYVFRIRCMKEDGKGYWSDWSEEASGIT
Chain of IL-6 variant Mut1 displayed on yeast (human) (P05231 30-212, change not shown): as the sequence (P05231 30-212, change not shown) above
Chain of IL-6 variant Mut3 displayed on yeast (human) (P05231 30-212, change not shown): as above

biotinylated gp130 ectodomain (SD1-SD3, amino acids 23–321) (from UniProt P40189 23-321) (domain or fragment)
8.70: all assays above
